Reference: the nanobody polyreactivity screen of Harvey et al. (2022)

Assay: yeast display, Sf9 membrane polyspecificity reagent, FACS + sequencing; frameworks hold sequencing errors
In short: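 After 36–48 hours of galactose induction, yeast (Saccharomyces cerevisiae BJ5465) displaying a synthetic nanobody library were stained at 4 °C for 1 hour with 10% biotinylated, detergent-solubilized Sf9 membrane reagent. Streptavidin microbeads enriched the stained cells before FACS sorting into low and high (top ~1%) gates on anti-HA and streptavidin fluorescence. Each clone's polyreactivity label reflects its gate of origin.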

| Sequence | polyreactivity (PSR sort gate) |
| --- | --- |
| QVQLVESGGGLVQAGGSLRLSCAASGRTFRAYAMGWYRQAPGKEMELVAGITSGGSTNYADSVKGRFTISRDNAKNTVYLQMNSLKPEDTAVYYCAARRGTYRYRYDYWGQGTQVTVSS | high polyreactivity |
| QVQLVESGGGLVQAGGSLRLSCAASGRTFRAYAMGWYRQAPGKERELVAAIRSGTSTNYADSVKGRFTISRDNAKNTVYLQMNSLKPEDTAVYYCAAEWRKTYRYFTFGYWGQGTQVTVSS | high polyreactivity |
| QVQLVESGGGLVQAGGSLRLSCAASGRTFRAYAMGWYRQAPGKERELVAAISRSGGRTYYADSVKGRFIISRDNAKITVYLQMNSLKPEDTAVYYCAAGSNIWGQGTQVTVSS | high polyreactivity |
| QVQLVESGGGLVQAGGSLRLSCAASGRTFRDNAMGWYRQAPGKERELVAAISRRGGSTYYADSVKGRFTISRDNAKNTVYLQMNSLKPEDTAVYYCAADRPDGWVDYWGQGTQVTVSS | low polyreactivity |
| QVQLVESGGGLVQAGGSLRLSCAASGRTFRDNTMGWYRQAPGKERELVAGISSSTGSTYYADSVKGRFTISRDNAKNTVYLQMNSLKPEDTAVYYCAAEYADYWTYNMGYWGQGTQVTVSS | low polyreactivity |
| QVQLVESGGGLVQAGGSLRLSCAASGRTFRFYAMGWYRQAPGKERELVAAITSGGSTTYADSVKGRFTISRDNAKNTVYLQMNSLKPEDTAVYYCNADRARAYDYWGQGTQVTVSS | high polyreactivity |
| QVQLVESGGGLVQAGGSLRLSCAASGRTFRGYAMGWYRQAPGKERELVAAISASGGSTYYADSVKGRFTISRDNAKNTVYLQMNSLKPEDTAVYYCAARFWFTKGYDYWGQGTQVTVSS | high polyreactivity |
| QVQLVESGGGLVQAGGSLRLSCAASGRTFRGYAMGWYRQAPGKERELVAAISSGGSTYYADSVKGRFTISRDNAKNTVYLQMNSLKPEDTAVYYCAVAYYPHGREGAHFQYGYDYWGQGTQVTVSS | low polyreactivity |
| QVQLVESGGGLVQAGGSLRLSCAASGRTFRHDGMGWYRQAPGKERELVAAISRSGGRTYYADSVKGRFTISRDNAKNTVYLQMNSLKPEDTAVYYCNAPYDVTTYAFDYWGQGTQVTVSS | high polyreactivity |
| QVQLVESGGGLVQAGGSLRLSCAASGRTFRIYAMGWYRQAPGKERELVAAITWGGGSTYYADSVKGRFTISRDNAKNTVYLQMNSLKPEDTAVYYCARVGWSWPRREKYNYWGQGTQVTVSS | high polyreactivity |
| QVQLVESGGGLVQAGGSLRLSCAASGRTFRIYAMGWYRQAPGKERELVATISGRGGNTYYADSVKGRFTISRDNAKNTVYLQMNSLKPEDTAVDYCAADDATAYRVDGFKYDYWGQGTLVTVSS | high polyreactivity |
| QVQLVESGGGLVQAGGSLRLSCAASGRTFRIYARGWSRQAPGKERELDAAITKRGGITYYADSVKGRFTISRDNAQNTVYLQMNSLKPEDTAVYYCAKAWKSWSRISKSTFYWTSGDYWGQGTQVTVSS | high polyreactivity |
| QVQLVESGGGLVQAGGSLRLSCAASGRTFRKFAMGWYRQAPGKERELVAASSWSGGSTYYANSVKGRFTISRDNAKNTVYLQMNSLKPDDTAVYYCAAVPVHTGSLYWGFTTGYDYWGQGTQVTVSS | low polyreactivity |
| QVQLVESGGGLVQAGGSLRLSCAASGRTFRKYAMGWYRQAPGKERELVAAISWSGGSRYYANSVKGRFTISRDNAKNTVYLQMNSLKPEETAVYYCSAVPVHTGSLYWGFTTGYDYWGQGTQVTVSS | low polyreactivity |
| QVQLVESGGGLVQAGGSLRLSCAASGRTFRKYAMGWYRQAPGKERELVAAISWSGGSTYYANSVKGRFTISRDNAKNTVYLQMNSLKPEDTAVYYCAAVPVHTGSLYWGFTTGYDYWGQGTQVTVSS | low polyreactivity |
| QVQLVESGGGLVQAGGSLRLSCAASGRTFRLNAMGWYRQAPGKERELVARITGSSGGSTYYADSVKGRFTISRDNAKNTVYLQMNSLKPEDTAVYYCNKRVGFLYKYDYWGQGTQVTVSS | high polyreactivity |
| QVQLVESGGGLVQAGGSLRLSCAASGRTFRLYAMGWYRHAPGKERELVAAISRRGGSTYYADSVKGRFTISRDNAKNTVYLQMNSLKPEDTAVYYCAKGLGSGQEIYGYDYWGQGTQVTVSS | high polyreactivity |
